Source: article PMC4118829

Experiments:
[1] = target: N-terminal domain of the ectodomain of Hepatitis C virus envelope glycoprotein E1, N43Q (Hepatitis C virus); test: SEC; size-exclusion chromatography; data not shown
[2] = target: N-terminal domain of the ectodomain of Hepatitis C virus envelope glycoprotein E1, N43Q (Hepatitis C virus); test: reducing and nonreducing SDS-PAGE; 15% reducing (R) and nonreducing (NR) SDS-PAGE gels of purified deglycosylated HCV nE1; covalent dimer

In the case of “N-terminal domain of the ectodomain of Hepatitis C virus envelope glycoprotein E1, N43Q (domain or fragment)”, the stoichiometry N [1] is reported as 2 and the stoichiometry N [2] is reported as 2.
